Results on one protein are retold here after article doi:10.1101/2021.12.21.473721 (bioRxiv, 2021).

The series deals with the molecule itself. In words: SEC. On the technique in general: Size exclusion chromatography separates by hydrodynamic size, large species first.

B1: bacteriophage MS2 coat protein, wildtype (MS2[WT]) (natural protein)
chain: ASNFTQFVLVDNGGTGDVTVAPSNFANGVAEWISSNSRSQAYKVTCSVRQSSAQNRKYTIKVEVPKVATQTVGGVELPVAAWRSYLNMELTIPIFATNSDCELIVKAMQGLLKDGNPIPSAIAANSGIY
As for B1, the binding result is “binds”.
